Reference: patent US20230002480A1

Key:
Assay in all cases: cell-based or functional assay
[1] = molecular target: HIV-1 Env of pseudovirus 191955_A11 (HIV-1)
[2] = molecular target: HIV-1 Env of pseudovirus 3016.v5.c45 (HIV-1)
[3] = molecular target: HIV-1 Env of pseudovirus 6545.v4.c1 (HIV-1)
[4] = molecular target: HIV-1 Env of pseudovirus 6811.v7.c18 (HIV-1)
[5] = molecular target: HIV-1 Env of pseudovirus A07412M1.vrc12 (HIV-1)
[6] = molecular target: HIV-1 Env of pseudovirus BJOX009000.02.4 (HIV-1)
[7] = molecular target: HIV-1 Env of pseudovirus BJOX010000.06.2 (HIV-1)
[8] = molecular target: HIV-1 Env of pseudovirus BJOX015000.11.5 (HIV-1)
[9] = molecular target: HIV-1 Env of pseudovirus BJOX025000.01.1 (HIV-1)
[10] = molecular target: HIV-1 Env of pseudovirus C1080.c03 (HIV-1)
[11] = molecular target: HIV-1 Env of pseudovirus C4118.c09 (HIV-1)
[12] = molecular target: HIV-1 Env of pseudovirus CAP45.2.00.G3 (HIV-1)
[13] = molecular target: HIV-1 Env of pseudovirus CNE30 (HIV-1)
[14] = molecular target: HIV-1 Env of pseudovirus CNE53 (HIV-1)
[15] = molecular target: HIV-1 Env of pseudovirus Ce704809221_1B3 (HIV-1)
[16] = molecular target: HIV-1 Env of pseudovirus Du156.12 (HIV-1)
[17] = molecular target: HIV-1 Env of pseudovirus Du172.17 (HIV-1)
[18] = molecular target: HIV-1 Env of pseudovirus Du422.1 (HIV-1)
[19] = molecular target: HIV-1 Env of pseudovirus HIV-001428-2.42 (HIV-1)
[20] = molecular target: HIV-1 Env of pseudovirus P0402_c2_11 (HIV-1)
[21] = molecular target: HIV-1 Env of pseudovirus P1981_C5_3 (HIV-1)
[22] = molecular target: HIV-1 Env of pseudovirus PVO.4 (HIV-1)
[23] = molecular target: HIV-1 Env of pseudovirus Q23.17 (HIV-1)
[24] = molecular target: HIV-1 Env of pseudovirus Q259.d2.17 (HIV-1)
[25] = molecular target: HIV-1 Env of pseudovirus QH0692.42 (HIV-1)
[26] = molecular target: HIV-1 Env of pseudovirus R2184.c04 (HIV-1)
[27] = molecular target: HIV-1 Env of pseudovirus T251-18 (HIV-1)
[28] = molecular target: HIV-1 Env of pseudovirus THRO4156.18 (HIV-1)
[29] = molecular target: HIV-1 Env of pseudovirus TRJO4551.58 (HIV-1)
[30] = molecular target: HIV-1 Env of pseudovirus TRO.11 (HIV-1)
[31] = molecular target: HIV-1 Env of pseudovirus X1193_c1 (HIV-1)
[32] = molecular target: HIV-1 Env of pseudovirus X1632_S2_B10 (HIV-1)
[33] = molecular target: HIV-1 Env of pseudovirus ZM197M.PB7 (HIV-1)

B1: N49P23 (antibody, V domains shown)
VH: QVRLVQSGAGARKTGASMKLSCSTSGYTFTTHHGHFINWVRQARGQGLEWMGWMNPMTGQMNIEGKFQGRVTLTRDIYSDTAYMEMTRLTTGDTGTYYCARGDFGQNYPFHYWGQGSLVIVSS
VL: LSALTQPASVSGSPGQSVTISCSGTNRYLVSWYQQHPDKAPKLIIYDDNKRPSGISDRFSASRPDDTASLTISGLQTGDEATYWCASYERFGGGTRLTVLS
With B1 the IC50 [1] was > 50 µg/mL, the IC80 [1] was > 50 µg/mL and the MPI [1] was 31. For the same binder, the IC50 [2] was 0.027 µg/mL, the IC80 [2] was 0.092 µg/mL and the MPI [2] was 100. The IC50 [3] was > 50 µg/mL, the IC80 [3] was > 50 µg/mL and the MPI [3] was 10. The IC50 [4] was 17.7 µg/mL, the IC80 [4] was > 50 µg/mL and the MPI [4] was 61. It also gave an IC50 [5] of 0.114 µg/mL, an IC80 [5] of 0.83 µg/mL and an MPI [5] of 97. For the same binder, the IC50 [6] was > 50 µg/mL, the IC80 [6] was > 50 µg/mL and the MPI [6] was 8. The IC50 [7] was 0.284 µg/mL, the IC80 [7] was 2.08 µg/mL and the MPI [7] was 100. The IC50 [8] was > 50 µg/mL, the IC80 [8] was > 50 µg/mL and the MPI [8] was 0. For the same binder, the IC50 [9] was > 50 µg/mL, the IC80 [9] was > 50 µg/mL and the MPI [9] was 0. For the same binder, the IC50 [10] was 1.33 µg/mL, the IC80 [10] was 11.3 µg/mL and the MPI [10] was 96. It also gave an IC50 [11] of 0.026 µg/mL, an IC80 [11] of 0.12 µg/mL and an MPI [11] of 100. The IC50 [12] was > 50 µg/mL, the IC80 [12] was > 50 µg/mL and the MPI [12] was 0. The IC50 [13] was 0.143 µg/mL, the IC80 [13] was 0.68 µg/mL and the MPI [13] was 100. It also gave an IC50 [14] of 0.026 µg/mL, an IC80 [14] of 0.095 µg/mL and an MPI [14] of 100. For the same binder, the IC50 [15] was 0.083 µg/mL, the IC80 [15] was 0.643 µg/mL and the MPI [15] was 100. The IC50 [16] was > 50 µg/mL, the IC80 [16] was > 50 µg/mL and the MPI [16] was 0. For the same binder, the IC50 [17] was > 50 µg/mL, the IC80 [17] was > 50 µg/mL and the MPI [17] was 45. The IC50 [18] was > 50 µg/mL, the IC80 [18] was > 50 µg/mL and the MPI [18] was 4. It also gave an IC50 [19] of 0.036 µg/mL, an IC80 [19] of 0.241 µg/mL and an MPI [19] of 98. It also gave an IC50 [20] of 0.022 µg/mL, an IC80 [20] of 0.065 µg/mL and an MPI [20] of 100. For the same binder, the IC50 [21] was 0.096 µg/mL, the IC80 [21] was 0.264 µg/mL and the MPI [21] was 100. It also gave an IC50 [22] of 0.087 µg/mL, an IC80 [22] of 0.43 µg/mL and an MPI [22] of 100. The IC50 [23] was 0.01 µg/mL, the IC80 [23] was 0.046 µg/mL and the MPI [23] was 100. It also gave an IC50 [24] of 0.362 µg/mL, an IC80 [24] of 7.79 µg/mL and an MPI [24] of 91. The IC50 [25] was 0.557 µg/mL, the IC80 [25] was 2.51 µg/mL and the MPI [25] was 100. It also gave an IC50 [26] of 0.008 µg/mL, an IC80 [26] of 0.032 µg/mL and an MPI [26] of 100. The IC50 [27] was > 50 µg/mL, the IC80 [27] was > 50 µg/mL and the MPI [27] was 18. For the same binder, the IC50 [28] was 1.98 µg/mL, the IC80 [28] was 10.7 µg/mL and the MPI [28] was 97. It also gave an IC50 [29] of 0.016 µg/mL, an IC80 [29] of 0.068 µg/mL and an MPI [29] of 100. The IC50 [30] was 0.094 µg/mL, the IC80 [30] was 0.336 µg/mL and the MPI [30] was 100. It also gave an IC50 [31] of 0.008 µg/mL, an IC80 [31] of 0.038 µg/mL and an MPI [31] of 100. For the same binder, the IC50 [32] was 0.13 µg/mL, the IC80 [32] was > 50 µg/mL and the MPI [32] was 62. It also gave an IC50 [33] of 0.1 µg/mL, an IC80 [33] of 0.385 µg/mL and an MPI [33] of 100.

B2: N49P22 (antibody, V domains shown)
V domain 1: HIQLLQSGPQVKKSGDTVRISCETSGYNFVDSRIHWVRQTPEKRLRWMGWINPLQGGVNYAPEFQGRIRMTRDTFIDTVYVDLSGLTPADTAYYYCARGIDGKSYPFHFWGHGTRVTVFS
V domain 2: RFALTQPASVSGSPGQTITITCAGGSVSWFHFPPGKTPRLIIYESSKRPSGVSPRFSGSQSGSTASLIISGLQSDDEGTYFCSILEFFGRGTLVTVLS
With B2 the IC50 [1] was > 50 µg/mL, the IC80 [1] was > 50 µg/mL and the MPI [1] was 9. The IC50 [2] was > 50 µg/mL, the IC80 [2] was > 50 µg/mL and the MPI [2] was 23. The IC50 [3] was > 50 µg/mL, the IC80 [3] was > 50 µg/mL and the MPI [3] was 17. For the same binder, the IC50 [4] was 1 µg/mL, the IC80 [4] was 9.72 µg/mL and the MPI [4] was 92. The IC50 [5] was 9.6 µg/mL, the IC80 [5] was > 50 µg/mL and the MPI [5] was 63. For the same binder, the IC50 [6] was 17.3 µg/mL, the IC80 [6] was > 50 µg/mL and the MPI [6] was 64. For the same binder, the IC50 [7] was > 50 µg/mL, the IC80 [7] was > 50 µg/mL and the MPI [7] was 0. The IC50 [8] was 1.26 µg/mL, the IC80 [8] was 10.8 µg/mL and the MPI [8] was 89. The IC50 [9] was > 50 µg/mL, the IC80 [9] was > 50 µg/mL and the MPI [9] was 0. The IC50 [10] was 15.9 µg/mL, the IC80 [10] was > 50 µg/mL and the MPI [10] was 64. It also gave an IC50 [11] of 1.82 µg/mL, an IC80 [11] of 26.6 µg/mL and an MPI [11] of 93. For the same binder, the IC50 [12] was > 50 µg/mL, the IC80 [12] was > 50 µg/mL and the MPI [12] was 0. For the same binder, the IC50 [13] was > 50 µg/mL, the IC80 [13] was > 50 µg/mL and the MPI [13] was 30. It also gave an IC50 [14] of 0.779 µg/mL, an IC80 [14] of 5.11 µg/mL and an MPI [14] of 93. The IC50 [15] was 15.8 µg/mL, the IC80 [15] was > 50 µg/mL and the MPI [15] was 60. For the same binder, the IC50 [16] was > 50 µg/mL, the IC80 [16] was > 50 µg/mL and the MPI [16] was 4. The IC50 [17] was > 50 µg/mL, the IC80 [17] was > 50 µg/mL and the MPI [17] was 4. For the same binder, the IC50 [18] was > 50 µg/mL, the IC80 [18] was > 50 µg/mL and the MPI [18] was 4. It also gave an IC50 [19] of 0.73 µg/mL, an IC80 [19] of 7.1 µg/mL and an MPI [19] of 91. The IC50 [20] was 5.93 µg/mL, the IC80 [20] was > 50 µg/mL and the MPI [20] was 73. For the same binder, the IC50 [21] was > 50 µg/mL, the IC80 [21] was > 50 µg/mL and the MPI [21] was 48. It also gave an IC50 [22] of 0.433 µg/mL, an IC80 [22] of 1.49 µg/mL and an MPI [22] of 100. It also gave an IC50 [23] of 0.321 µg/mL, an IC80 [23] of 2.4 µg/mL and an MPI [23] of 96. The IC50 [24] was > 50 µg/mL, the IC80 [24] was > 50 µg/mL and the MPI [24] was 15. For the same binder, the IC50 [25] was 0.592 µg/mL, the IC80 [25] was 2.02 µg/mL and the MPI [25] was 100. The IC50 [26] was 0.077 µg/mL, the IC80 [26] was 0.342 µg/mL and the MPI [26] was 100. The IC50 [27] was 0.58 µg/mL, the IC80 [27] was 3.09 µg/mL and the MPI [27] was 99. The IC50 [28] was > 50 µg/mL, the IC80 [28] was > 50 µg/mL and the MPI [28] was 32. For the same binder, the IC50 [29] was > 50 µg/mL, the IC80 [29] was > 50 µg/mL and the MPI [29] was 28. For the same binder, the IC50 [30] was 0.283 µg/mL, the IC80 [30] was 1.36 µg/mL and the MPI [30] was 99. The IC50 [31] was 3.49 µg/mL, the IC80 [31] was 28.5 µg/mL and the MPI [31] was 85. For the same binder, the IC50 [32] was > 50 µg/mL, the IC80 [32] was > 50 µg/mL and the MPI [32] was 0. It also gave an IC50 [33] of 2.58 µg/mL, an IC80 [33] of 25.1 µg/mL and an MPI [33] of 84.
